Bounds are passed on as bounds.

The target of assay [1] is Neisseria meningitidis Opc protein (outer membrane adhesin), on acapsulate Opc+ bacteria of serogroup A strain C751 (Neisseria meningitidis serogroup A strain C751) (UniProt Q7DDI3). The assay can be described thus: depletion from serum by sequential adsorption with whole bacteria, immuno-dot blot of the serum; a serum sample adsorbed sequentially with three fresh live bacterial suspensions, one hour each; remaining activated Vn (mAb 8E6), total Vn and Fn (polyclonal antibodies) by immuno-dot blot and densitometry.

In assay [2] the target is Neisseria meningitidis Opc protein, on capsulate Opc+ bacteria of serogroup B strain MC58 (Neisseria meningitidis serogroup B strain MC58). Described as above.
Assay [3] has the same target.
Assay [4] has as its target Neisseria meningitidis Opc protein (outer membrane adhesin), on acapsulate Opc+ bacteria of serogroup A strain C751 (Neisseria meningitidis serogroup A strain C751) (UniProt Q7DDI3).

fibronectin (human), of normal human serum and purified plasma fibronectin, P02751 32-2477 (natural protein), sequence (P02751 32-2477): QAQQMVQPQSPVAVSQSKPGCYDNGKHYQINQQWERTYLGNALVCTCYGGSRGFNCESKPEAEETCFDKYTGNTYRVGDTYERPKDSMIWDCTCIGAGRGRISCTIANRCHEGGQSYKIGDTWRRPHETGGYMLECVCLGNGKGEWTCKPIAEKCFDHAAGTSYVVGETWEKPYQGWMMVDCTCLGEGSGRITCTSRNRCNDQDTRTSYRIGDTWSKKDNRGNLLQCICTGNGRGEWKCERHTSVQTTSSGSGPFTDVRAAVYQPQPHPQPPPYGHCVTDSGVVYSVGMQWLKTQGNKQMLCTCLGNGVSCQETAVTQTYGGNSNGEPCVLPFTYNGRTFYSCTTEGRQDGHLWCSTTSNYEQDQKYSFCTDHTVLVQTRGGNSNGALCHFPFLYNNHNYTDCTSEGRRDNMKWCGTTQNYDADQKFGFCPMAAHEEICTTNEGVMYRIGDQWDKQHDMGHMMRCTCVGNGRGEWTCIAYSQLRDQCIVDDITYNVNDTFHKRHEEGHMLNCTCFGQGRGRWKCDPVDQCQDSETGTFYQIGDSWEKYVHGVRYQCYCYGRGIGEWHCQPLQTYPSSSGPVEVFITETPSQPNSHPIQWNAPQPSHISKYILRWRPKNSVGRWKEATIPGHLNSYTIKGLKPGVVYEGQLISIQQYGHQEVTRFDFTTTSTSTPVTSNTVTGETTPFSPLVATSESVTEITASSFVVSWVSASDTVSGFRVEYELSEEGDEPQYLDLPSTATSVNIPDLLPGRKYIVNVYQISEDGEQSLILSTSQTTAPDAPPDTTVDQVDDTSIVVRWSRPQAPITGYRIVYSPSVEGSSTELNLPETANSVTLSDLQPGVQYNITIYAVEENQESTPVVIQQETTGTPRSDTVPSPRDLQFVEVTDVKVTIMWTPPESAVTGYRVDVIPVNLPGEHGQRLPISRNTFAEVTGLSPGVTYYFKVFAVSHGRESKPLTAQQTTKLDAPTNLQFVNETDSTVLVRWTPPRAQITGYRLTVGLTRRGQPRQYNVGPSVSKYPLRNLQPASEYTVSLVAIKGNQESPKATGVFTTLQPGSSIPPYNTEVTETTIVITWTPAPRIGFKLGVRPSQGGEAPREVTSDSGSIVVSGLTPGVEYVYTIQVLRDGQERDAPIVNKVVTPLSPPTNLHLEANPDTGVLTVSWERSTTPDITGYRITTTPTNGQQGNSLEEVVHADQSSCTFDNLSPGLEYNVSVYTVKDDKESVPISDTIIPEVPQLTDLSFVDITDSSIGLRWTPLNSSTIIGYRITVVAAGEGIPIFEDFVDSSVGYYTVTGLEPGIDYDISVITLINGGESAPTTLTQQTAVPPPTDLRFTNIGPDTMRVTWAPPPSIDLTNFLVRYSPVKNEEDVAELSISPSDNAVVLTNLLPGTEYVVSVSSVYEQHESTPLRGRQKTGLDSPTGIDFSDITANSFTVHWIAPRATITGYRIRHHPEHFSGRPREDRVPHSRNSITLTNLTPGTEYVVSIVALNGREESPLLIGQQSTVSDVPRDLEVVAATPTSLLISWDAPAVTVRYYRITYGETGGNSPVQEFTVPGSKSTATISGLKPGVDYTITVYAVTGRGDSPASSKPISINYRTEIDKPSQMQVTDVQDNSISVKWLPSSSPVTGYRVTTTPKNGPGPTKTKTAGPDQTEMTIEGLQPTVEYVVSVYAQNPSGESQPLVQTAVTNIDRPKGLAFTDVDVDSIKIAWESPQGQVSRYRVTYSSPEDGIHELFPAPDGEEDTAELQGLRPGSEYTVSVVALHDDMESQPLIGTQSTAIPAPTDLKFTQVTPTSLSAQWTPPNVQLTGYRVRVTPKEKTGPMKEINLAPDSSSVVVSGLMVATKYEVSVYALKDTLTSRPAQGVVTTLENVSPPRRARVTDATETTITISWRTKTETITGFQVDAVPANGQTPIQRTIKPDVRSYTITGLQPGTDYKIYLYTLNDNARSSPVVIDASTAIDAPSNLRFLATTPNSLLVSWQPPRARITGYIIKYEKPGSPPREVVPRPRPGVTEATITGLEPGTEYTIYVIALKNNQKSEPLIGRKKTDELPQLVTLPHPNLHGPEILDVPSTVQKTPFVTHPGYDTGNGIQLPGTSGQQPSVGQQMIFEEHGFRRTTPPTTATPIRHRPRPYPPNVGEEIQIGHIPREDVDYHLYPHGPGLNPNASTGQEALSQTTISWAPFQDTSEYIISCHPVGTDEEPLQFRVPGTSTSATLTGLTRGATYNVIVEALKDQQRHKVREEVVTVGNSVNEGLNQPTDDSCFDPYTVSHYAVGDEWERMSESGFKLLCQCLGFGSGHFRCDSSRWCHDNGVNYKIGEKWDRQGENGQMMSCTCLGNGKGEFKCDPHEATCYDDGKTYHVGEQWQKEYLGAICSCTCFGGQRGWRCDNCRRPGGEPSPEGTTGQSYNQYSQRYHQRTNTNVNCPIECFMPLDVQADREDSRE

“vitronectin of normal human serum (total Vn, detected with polyclonal anti-Vn) (natural protein)” registered a percent depleted from serum after three adsorptions in assay [1] of 25%.
On to “activated vitronectin (human), from normal human serum, purified by heparin-sepharose chromatography (natural protein)”, for which, in assay [2], the percent depleted from serum after three adsorptions stood at 81%. Moreover, in assay [1], the percent depleted from serum after two adsorptions was more than 75%.
Substance “fibronectin (human), of normal human serum and purified plasma fibronectin, P02751 32-2477 (natural protein)” yielded a percent depleted from serum after three adsorptions in assay [1] of 20%.
For “VA-21S, synthetic peptide of vitronectin residues 48-68 sulphated at residues 56 and 59”, in assay [3], the inhibition by VA-21S of VA-26S-mediated adhesion of piliated capsulate Opc+ MC58 to HBMECs (data not illustrated) amounted to 40% and the inhibition by VA-21S of VA-26S-mediated invasion of HBMECs by piliated capsulate Opc+ MC58 (data not illustrated) was more than 80%. For the same substance, in assay [4], the inhibition by VA-21S of VA-26S-mediated adhesion of C751 Opc+ Nm to HBMECs (data not illustrated) worked out at 80% and the inhibition by VA-21S of VA-26S-mediated invasion of HBMECs by C751 Opc+ Nm (data not illustrated) was determined as 100%.

The values above are taken from publication PMC2873925.
